Source: article doi:10.1101/2021.02.18.431788

Biological target: Neurofibromin (NF1), full length, isoform 1 (human) (UniProt P21359)
Assay: AUC

stoichiometry N: 2
Substance: Neurofibromin (NF1), full length, isoform 1, P21359-2 1-2818
